What all share (assay): nESI-MS
For assay [1], the target named is Ferredoxin (Spinacia oleracea, UniProt P00221).
In assay [2] the target is PCBP1 (Homo sapiens, UniProt Q15365).
For assay [3], the target named is PCBP1 (apo) (Homo sapiens, UniProt Q15365).
Chain of PCBP1 (apo) (Q15365 whole entry): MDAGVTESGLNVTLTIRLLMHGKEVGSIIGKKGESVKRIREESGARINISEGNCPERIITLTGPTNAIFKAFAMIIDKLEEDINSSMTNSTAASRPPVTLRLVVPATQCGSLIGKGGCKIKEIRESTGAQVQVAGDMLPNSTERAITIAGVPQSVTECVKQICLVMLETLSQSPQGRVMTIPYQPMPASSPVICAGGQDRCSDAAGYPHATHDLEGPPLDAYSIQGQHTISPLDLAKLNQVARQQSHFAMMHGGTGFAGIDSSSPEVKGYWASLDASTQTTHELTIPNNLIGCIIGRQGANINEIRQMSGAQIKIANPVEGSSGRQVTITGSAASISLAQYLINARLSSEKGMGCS

Chain of PCBP1 (Q15365 whole entry): as above
Chain of Ferredoxin (P00221 51-147): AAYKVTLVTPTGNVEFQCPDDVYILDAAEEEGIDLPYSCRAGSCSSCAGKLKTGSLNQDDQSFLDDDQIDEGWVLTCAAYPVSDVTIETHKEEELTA

B1: Ferredoxin-NADP+ reductase (protein)
chain: QIASDVEAPPPAPAKVEKHSKKMEEGITVNKFKPKTPYVGRCLLNTKITGDDAPGETWHMVFSHEGEIPYREGQSVGVIPDGEDKNGKPHKLRLYSIASSALGDFGDAKSVSLCVKRLIYTNDAGETIKGVCSNFLCDLKPGAEVKLTGPVGKEMLMPKDPNATIIMLGTGTGIAPFRSFLWKMFFEKHDDYKFNGLAWLFLGVPTSSSLLYKEEFEKMKEKAPDNFRLDFAVSREQTNEKGEKMYIQTRMAQYAVELWEMLKKDNTYFYMCGLKGMEKGIDDIMVSLAAAEGIDWIEYKRQLKKAEQWNVEVY
B1: in assay [1], the affinity, expressed as Kd, was 16 µM.

B2: HDAC8 (Zn) (protein)
chain: MEEPEEPADSGQSLVPVYIYSPEYVSMCDSLAKIPKRASMVHSLIEAYALHKQMRIVKPKVASMEEMATFHTDAYLQHLQKVSQEGDDDHPDSIEYGLGYDCPATEGIFDYAAAIGGATITAAQCLIDGMCKVAINWSGGWHHAKKDEASGFCYLNDAVLGILRLRRKFERILYVDLDLHHGDGVEDAFSFTSKVMTVSLHKFSPGFFPGTGDVSDVGLGKGRYYSVNVPIQDGIQDEKYYQICESVLKEVYQAFNPKAVVLQLGADTIAGDPMCSFNMTPVGIGKCLKYILQWQLATLILGGGGYNLANTARCWTYLTGVILGKTLSSEIPDHEFFTAYGPDYVLEITPSCRPDRNEPHRIQQILNYIKGNLKHVV
modifications: Zn2+-bound HDAC8
Regarding B2, in assay [2], binding was put at a Kd of 60 µM.

B3: HDAC8 (apo) (protein)
chain: B2 chain
Regarding B3, the Kd in assay [3] is 68 µM.

B4: HDAC8 (Fe) (protein)
chain: B2 chain
modifications: Fe2+-bound HDAC8
Turning to B4, binding in assay [2] was characterised by a dissociation constant (Kd) of 44 µM.

B5: HDAC8 (protein)
chain: B2 chain
B5 yielded a Kd in assay [2] of 63 µM.

In general, Kd refers to the free concentration of one partner at which half of the binding sites on the other are occupied at equilibrium, for simple one-to-one binding. Lower therefore signals tighter binding.
